Data: US20180022781A1 (INSERM INSTITUT NATIONAL DE LA SANTE ET DE LA RECHERCHE …, published 2018)

B1: Ty1 integrase with S621 modified in A, expressed from a mutant Ty1 element (protein)
chain: NVHTSESTRKYPYPFIHRMLAHANAQTIRYSLKNNTITYFNESDVDWSSAIDYQCPDCLIGKSTKHRHIKGSRLKYQNSYEPFQYLHTDIFGPVHNLPNSAPSYFISFTDETTKFRWVYPLHDRREDSILDVFTTILAFIKNQFQASVLVIQMDRGSEYTNRTLHKFLEKNGITPCYTTTADSRAHGVAERLNRTLLDDCRTQLQCSGLPNHLWFSAIEFSTIVRNSLASPKSKKSARQHAGLAGLDISTLLPFGQPVIVNDHNPNSKIHPRGIPGYALHPSRNSYGYIIYLPSLKKTVDTTNYVILQGKESRLDQFNYDALTFDEDLNRLTASYHSFIASNEIQESNDLNIESDHDFQSDIELHPEQPRNVLSKAVSPTDSTPPSTHTEDSKRVSKTNIRAPREVDPNISESNILPSKKRSSTPQISNIESTGSGGMHKLNVPLLAPMSQSNTHESSHASKSKDFRHSDSYSENETNHTNVPISSTGGTNNKTVPQISDQETEKRIIHRSPSIDASPPENNSSHNIVPIKTPTTVSEQNTEESIIADLPLPDLPPESPTEFPDPFKELPPINSRQTNSSLGGIGDSNAYTTINSKKRSLEDNETEIKVSRDTWNTKNMRALEPPRSKKRIHLIA
B2: Ty1 integrase with R619 [read as R620] modified in A, expressed from a mutant Ty1his3AI element (protein)
chain: NVHTSESTRKYPYPFIHRMLAHANAQTIRYSLKNNTITYFNESDVDWSSAIDYQCPDCLIGKSTKHRHIKGSRLKYQNSYEPFQYLHTDIFGPVHNLPNSAPSYFISFTDETTKFRWVYPLHDRREDSILDVFTTILAFIKNQFQASVLVIQMDRGSEYTNRTLHKFLEKNGITPCYTTTADSRAHGVAERLNRTLLDDCRTQLQCSGLPNHLWFSAIEFSTIVRNSLASPKSKKSARQHAGLAGLDISTLLPFGQPVIVNDHNPNSKIHPRGIPGYALHPSRNSYGYIIYLPSLKKTVDTTNYVILQGKESRLDQFNYDALTFDEDLNRLTASYHSFIASNEIQESNDLNIESDHDFQSDIELHPEQPRNVLSKAVSPTDSTPPSTHTEDSKRVSKTNIRAPREVDPNISESNILPSKKRSSTPQISNIESTGSGGMHKLNVPLLAPMSQSNTHESSHASKSKDFRHSDSYSENETNHTNVPISSTGGTNNKTVPQISDQETEKRIIHRSPSIDASPPENNSSHNIVPIKTPTTVSEQNTEESIIADLPLPDLPPESPTEFPDPFKELPPINSRQTNSSLGGIGDSNAYTTINSKKRSLEDNETEIKVSRDTWNTKNMASLEPPRSKKRIHLIA
B3: Ty1 integrase with K617 modified in A, expressed from a mutant Ty1 element (protein)
chain: NVHTSESTRKYPYPFIHRMLAHANAQTIRYSLKNNTITYFNESDVDWSSAIDYQCPDCLIGKSTKHRHIKGSRLKYQNSYEPFQYLHTDIFGPVHNLPNSAPSYFISFTDETTKFRWVYPLHDRREDSILDVFTTILAFIKNQFQASVLVIQMDRGSEYTNRTLHKFLEKNGITPCYTTTADSRAHGVAERLNRTLLDDCRTQLQCSGLPNHLWFSAIEFSTIVRNSLASPKSKKSARQHAGLAGLDISTLLPFGQPVIVNDHNPNSKIHPRGIPGYALHPSRNSYGYIIYLPSLKKTVDTTNYVILQGKESRLDQFNYDALTFDEDLNRLTASYHSFIASNEIQESNDLNIESDHDFQSDIELHPEQPRNVLSKAVSPTDSTPPSTHTEDSKRVSKTNIRAPREVDPNISESNILPSKKRSSTPQISNIESTGSGGMHKLNVPLLAPMSQSNTHESSHASKSKDFRHSDSYSENETNHTNVPISSTGGTNNKTVPQISDQETEKRIIHRSPSIDASPPENNSSHNIVPIKTPTTVSEQNTEESIIADLPLPDLPPESPTEFPDPFKELPPINSRQTNSSLGGIGDSNAYTTINSKKRSLEDNETEIKVSRDTWNTANMRSLEPPRSKKRIHLIA
B4: Ty1 integrase with M619 modified in A, expressed from a mutant Ty1 element (protein)
chain: NVHTSESTRKYPYPFIHRMLAHANAQTIRYSLKNNTITYFNESDVDWSSAIDYQCPDCLIGKSTKHRHIKGSRLKYQNSYEPFQYLHTDIFGPVHNLPNSAPSYFISFTDETTKFRWVYPLHDRREDSILDVFTTILAFIKNQFQASVLVIQMDRGSEYTNRTLHKFLEKNGITPCYTTTADSRAHGVAERLNRTLLDDCRTQLQCSGLPNHLWFSAIEFSTIVRNSLASPKSKKSARQHAGLAGLDISTLLPFGQPVIVNDHNPNSKIHPRGIPGYALHPSRNSYGYIIYLPSLKKTVDTTNYVILQGKESRLDQFNYDALTFDEDLNRLTASYHSFIASNEIQESNDLNIESDHDFQSDIELHPEQPRNVLSKAVSPTDSTPPSTHTEDSKRVSKTNIRAPREVDPNISESNILPSKKRSSTPQISNIESTGSGGMHKLNVPLLAPMSQSNTHESSHASKSKDFRHSDSYSENETNHTNVPISSTGGTNNKTVPQISDQETEKRIIHRSPSIDASPPENNSSHNIVPIKTPTTVSEQNTEESIIADLPLPDLPPESPTEFPDPFKELPPINSRQTNSSLGGIGDSNAYTTINSKKRSLEDNETEIKVSRDTWNTKNARSLEPPRSKKRIHLIA
B5: Ty1 integrase (IN) expressed from a functional Ty1 element (protein)
chain: NVHTSESTRKYPYPFIHRMLAHANAQTIRYSLKNNTITYFNESDVDWSSAIDYQCPDCLIGKSTKHRHIKGSRLKYQNSYEPFQYLHTDIFGPVHNLPNSAPSYFISFTDETTKFRWVYPLHDRREDSILDVFTTILAFIKNQFQASVLVIQMDRGSEYTNRTLHKFLEKNGITPCYTTTADSRAHGVAERLNRTLLDDCRTQLQCSGLPNHLWFSAIEFSTIVRNSLASPKSKKSARQHAGLAGLDISTLLPFGQPVIVNDHNPNSKIHPRGIPGYALHPSRNSYGYIIYLPSLKKTVDTTNYVILQGKESRLDQFNYDALTFDEDLNRLTASYHSFIASNEIQESNDLNIESDHDFQSDIELHPEQPRNVLSKAVSPTDSTPPSTHTEDSKRVSKTNIRAPREVDPNISESNILPSKKRSSTPQISNIESTGSGGMHKLNVPLLAPMSQSNTHESSHASKSKDFRHSDSYSENETNHTNVPISSTGGTNNKTVPQISDQETEKRIIHRSPSIDASPPENNSSHNIVPIKTPTTVSEQNTEESIIADLPLPDLPPESPTEFPDPFKELPPINSRQTNSSLGGIGDSNAYTTINSKKRSLEDNETEIKVSRDTWNTKNMRSLEPPRSKKRIHLIA
B6: Ty1 integrase with L622 modified in A, expressed from a mutant Ty1 element (protein)
chain: NVHTSESTRKYPYPFIHRMLAHANAQTIRYSLKNNTITYFNESDVDWSSAIDYQCPDCLIGKSTKHRHIKGSRLKYQNSYEPFQYLHTDIFGPVHNLPNSAPSYFISFTDETTKFRWVYPLHDRREDSILDVFTTILAFIKNQFQASVLVIQMDRGSEYTNRTLHKFLEKNGITPCYTTTADSRAHGVAERLNRTLLDDCRTQLQCSGLPNHLWFSAIEFSTIVRNSLASPKSKKSARQHAGLAGLDISTLLPFGQPVIVNDHNPNSKIHPRGIPGYALHPSRNSYGYIIYLPSLKKTVDTTNYVILQGKESRLDQFNYDALTFDEDLNRLTASYHSFIASNEIQESNDLNIESDHDFQSDIELHPEQPRNVLSKAVSPTDSTPPSTHTEDSKRVSKTNIRAPREVDPNISESNILPSKKRSSTPQISNIESTGSGGMHKLNVPLLAPMSQSNTHESSHASKSKDFRHSDSYSENETNHTNVPISSTGGTNNKTVPQISDQETEKRIIHRSPSIDASPPENNSSHNIVPIKTPTTVSEQNTEESIIADLPLPDLPPESPTEFPDPFKELPPINSRQTNSSLGGIGDSNAYTTINSKKRSLEDNETEIKVSRDTWNTKNMRSAEPPRSKKRIHLIA

Tests used:
[1] = target: S. pombe AC40 (AC40sp) (Schizosaccharomyces pombe) (UniProt O94616); experiment: cell-based or functional assay
[2] = target: AC40 subunit of RNA polymerase III, P07703
AC40 subunit of RNA polymerase III, P07703, sequence (P07703 whole entry, looked up, tested part not stated): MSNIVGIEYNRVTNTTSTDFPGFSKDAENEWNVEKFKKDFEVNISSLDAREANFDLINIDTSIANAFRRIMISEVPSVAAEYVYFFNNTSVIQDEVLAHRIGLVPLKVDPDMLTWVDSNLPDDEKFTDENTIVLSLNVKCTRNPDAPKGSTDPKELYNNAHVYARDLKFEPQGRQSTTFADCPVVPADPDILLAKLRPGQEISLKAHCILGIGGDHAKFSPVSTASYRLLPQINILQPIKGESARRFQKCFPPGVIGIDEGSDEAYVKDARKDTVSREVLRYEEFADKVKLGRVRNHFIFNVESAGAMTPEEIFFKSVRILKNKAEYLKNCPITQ

[3] = target: S. pombe AC40 (AC40sp), O94616

| Molecule | PCR detection of Ty1 insertion events upstream of tG(GCC)C [2] | relative frequency of Ty1his3AI retrotransposition [2] | further results |
| --- | --- | --- | --- |
| Ty1 integrase (IN) expressed from a functional Ty1 element (from UniProt P0C2I7 583-1217) (enzyme) |  |  | fraction of 5FOA^R cells arising from Ty1 integration [1]: 30 fold lower |
| B1 | Ty1 integration upstream of a Pol III genes is severely affected in Ty1 mutants carrying mutations that abolish IN/AC40 interaction | Ty1 overall mobility decreases no more than two-fold in Ty1 mutants carrying mutations that abolish IN/AC40 interaction |  |
| B2 |  | Ty1 overall mobility decreases no more than two-fold in Ty1 mutants carrying mutations that abolish IN/AC40 interaction |  |
| B3 | The loss of this pattern was also obtained in mutants of Ty1 in which either of the K617 or M619 residues where modified in A (alanine) | Ty1 overall mobility decreases no more than two-fold in Ty1 mutants carrying mutations that abolish IN/AC40 interaction |  |
| B4 | The loss of this pattern was also obtained in mutants of Ty1 in which either of the K617 or M619 residues where modified in A (alanine) | Ty1 overall mobility decreases no more than two-fold in Ty1 mutants carrying mutations that abolish IN/AC40 interaction |  |
| B5 |  |  | PCR pattern of Ty1 insertions upstream of tG(GCC)C [3]: In cultures expressing AC40sp, the pattern was dramatically altered, showing both a significant decrease in Ty1 integration and an apparent relaxed periodicity between hotspots; frequency of IN-dependent Ty1HIS3 integration in a rad52Δ mutant [3]: the frequency of IN-dependent integration is 2-fold lower in AC40sp cells compared to AC40 cells; genome-wide Ty1 integration profile [3]: the loss-of-interaction mutant displayed a fundamentally different profile with only a slight bias to integrate near tRNA genes |
| B6 | Ty1 integration upstream of a Pol III genes is severely affected in Ty1 mutants carrying mutations that abolish IN/AC40 interaction | Ty1 overall mobility decreases no more than two-fold in Ty1 mutants carrying mutations that abolish IN/AC40 interaction |  |
